Experimental findings from PMC4003566 are described below.

In this experiment the target is human α7 nAChR TM domain (human). Briefly: SEC-MALS. Background: SEC sorts molecules by how far they enter the pores of the column.

In general, stoichiometry N refers to the number of molecules, sites or subunits per partner or assembly. Turning to “human α7 nAChR TM domain (domain or fragment)”, the stoichiometry N turned out to be 5.
